Experimental findings from patent US20100138941A1 (IMAGENE, published 2010) are described below.

In this assay the target is T1, AIMP1 protein (SEQ ID NO: 1) consisting of 312 amino acids (Homo sapiens (Human), UniProt Q12904 1-312).
T1 construct: also called purified AIMP1 protein; AIMP1 protein antigen
T1 sequence: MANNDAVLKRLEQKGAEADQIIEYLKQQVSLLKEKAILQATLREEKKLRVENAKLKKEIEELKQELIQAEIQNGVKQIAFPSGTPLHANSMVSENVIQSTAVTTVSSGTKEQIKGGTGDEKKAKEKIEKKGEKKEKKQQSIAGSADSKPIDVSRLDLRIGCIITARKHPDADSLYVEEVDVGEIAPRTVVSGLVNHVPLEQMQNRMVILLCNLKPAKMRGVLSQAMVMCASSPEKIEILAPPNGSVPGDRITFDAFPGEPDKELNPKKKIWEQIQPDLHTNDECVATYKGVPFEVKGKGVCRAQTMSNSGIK
Nature of the assay: purified GST-gp96 fragments incubated with AIMP1, Western blot with anti-AIMP1 antibody. As to the method: The purified GST-gp96 fragments were cultured with AIMP1 and analyzed by Western blot using an anti-AIMP1 antibody, and the analysis results are shown in FIG. 16.
On the technique in general: A western blot detects proteins with antibodies after separation by electrophoresis.

B1: GST-gp96-(699-799) (other)
chain: RRIKEDEDDKTVLDLAVVLFETATLRSGYLLPDTKAYGDRIERMLRLSLNIDPDAKVEEEPEEEPEETAEDTTEDTEQDEDEEMDVGTDEEEETAKESTAE
notes: GST-tag fusion purified on GSH agarose; also called domain involved in oligomerization; not shown: GST tag encoded by the pGEX4T3 vector (Amersham Biosciences)
With B1, the binding result is listed as “binds”.
